PMC9357085, “Three pairs of surrogate redox partners comparison for Class I cytochrome P450 enzyme activity reconstitution” (Communications Biology, 2022)

Key:
[1] = biological target: T1, P450sca-2 (CYP105A3) (Streptomyces carbophilus, UniProt Q59831); test: HPLC/HRMS of products, reconstituted system; format: biochemical; conditions: SelFdx1499/SelFdR0978 as redox partners (1:10:5), NADP+ with regeneration, pH 7.4, 30 °C, 2 h
T1 construct: His-tagged, expressed in E. coli, Ni-NTA purified
T1 sequence (Q59831 2-410): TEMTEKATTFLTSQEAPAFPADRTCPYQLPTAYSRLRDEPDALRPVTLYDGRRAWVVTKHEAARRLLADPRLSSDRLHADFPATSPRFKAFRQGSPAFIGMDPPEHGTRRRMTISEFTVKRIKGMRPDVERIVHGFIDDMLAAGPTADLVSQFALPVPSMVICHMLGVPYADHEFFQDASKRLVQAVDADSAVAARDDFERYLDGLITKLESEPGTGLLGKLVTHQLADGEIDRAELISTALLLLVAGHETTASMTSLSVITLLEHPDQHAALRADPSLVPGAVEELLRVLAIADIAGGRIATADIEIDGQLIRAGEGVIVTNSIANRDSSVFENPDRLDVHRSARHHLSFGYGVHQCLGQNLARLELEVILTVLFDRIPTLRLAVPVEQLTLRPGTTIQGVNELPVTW

[2] = biological target: T2, PdR (putidaredoxin reductase) (Pseudomonas putida, UniProt P16640); test: DCIP reduction, absorbance at […] nm; format: biochemical; conditions: 30 °C
T2 construct: gene camA; His-tagged, expressed in E. coli, Ni-NTA purified
T2 sequence (P16640 1-422): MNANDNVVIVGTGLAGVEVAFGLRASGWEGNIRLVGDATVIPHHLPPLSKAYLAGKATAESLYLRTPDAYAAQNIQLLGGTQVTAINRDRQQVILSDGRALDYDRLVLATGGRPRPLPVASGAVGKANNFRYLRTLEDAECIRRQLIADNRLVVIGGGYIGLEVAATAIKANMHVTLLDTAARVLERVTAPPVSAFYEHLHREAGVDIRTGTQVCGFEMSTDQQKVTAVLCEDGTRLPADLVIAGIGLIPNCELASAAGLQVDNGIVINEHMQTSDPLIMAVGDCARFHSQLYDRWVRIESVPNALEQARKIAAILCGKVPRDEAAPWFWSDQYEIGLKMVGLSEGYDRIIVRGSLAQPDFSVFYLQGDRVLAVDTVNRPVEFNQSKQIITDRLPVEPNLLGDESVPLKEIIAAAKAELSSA

[3] = biological target: T3, SelFdR0978 (Synechococcus elongatus, UniProt Q31PL1); test: DCIP reduction, absorbance at […] nm; format: biochemical; conditions: 30 °C
T3 construct: gene Synpcc7942_0978
T3 sequence (Q31PL1 1-403): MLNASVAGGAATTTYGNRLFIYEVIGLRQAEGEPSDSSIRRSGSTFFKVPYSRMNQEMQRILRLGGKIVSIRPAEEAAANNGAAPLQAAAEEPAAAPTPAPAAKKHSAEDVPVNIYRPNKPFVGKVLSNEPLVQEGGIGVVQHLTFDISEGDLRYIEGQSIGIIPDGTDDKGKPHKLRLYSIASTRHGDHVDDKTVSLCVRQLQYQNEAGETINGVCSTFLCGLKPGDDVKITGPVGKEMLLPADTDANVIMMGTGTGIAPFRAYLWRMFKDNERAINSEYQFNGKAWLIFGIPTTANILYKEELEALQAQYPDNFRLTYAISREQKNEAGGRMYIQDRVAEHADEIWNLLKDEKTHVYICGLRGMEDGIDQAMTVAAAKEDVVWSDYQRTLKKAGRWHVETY

[4] = biological target: T4, AdR (adrenodoxin reductase) (Bos taurus, UniProt P08165); test: DCIP reduction, absorbance at […] nm; format: biochemical; conditions: 30 °C
T4 construct: gene FDXR; C-terminal His-tag, expressed in E. coli; template plasmid pBAR-bAdR
T4 sequence (P08165 33-492): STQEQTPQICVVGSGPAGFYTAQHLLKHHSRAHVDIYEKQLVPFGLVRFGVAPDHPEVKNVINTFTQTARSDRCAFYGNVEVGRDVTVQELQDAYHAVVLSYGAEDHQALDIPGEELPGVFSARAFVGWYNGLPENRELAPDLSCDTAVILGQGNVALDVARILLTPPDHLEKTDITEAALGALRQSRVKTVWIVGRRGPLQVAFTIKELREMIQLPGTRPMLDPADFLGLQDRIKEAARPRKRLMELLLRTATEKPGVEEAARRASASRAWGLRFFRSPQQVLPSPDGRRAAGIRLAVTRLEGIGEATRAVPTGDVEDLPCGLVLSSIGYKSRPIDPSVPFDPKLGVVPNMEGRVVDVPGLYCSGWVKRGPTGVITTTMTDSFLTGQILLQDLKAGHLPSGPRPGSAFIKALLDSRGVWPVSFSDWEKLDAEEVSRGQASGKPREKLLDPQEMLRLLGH

[5] = biological target: T3, SelFdR0978; test: FAD released by guanidinium chloride, absorbance at […] nm; format: binding; conditions: FAD-bound flavoprotein as purified
[6] = biological target: T5, EpoK (CYP167A1) (Sorangium cellulosum, UniProt Q9KIZ4); test: conversion assay, reconstituted system; format: biochemical; conditions: SelFdx1499/SelFdR0978 as redox partners
T5 construct: His-tagged, expressed in E. coli (general P450 statement)
T5 sequence (Q9KIZ4 whole entry): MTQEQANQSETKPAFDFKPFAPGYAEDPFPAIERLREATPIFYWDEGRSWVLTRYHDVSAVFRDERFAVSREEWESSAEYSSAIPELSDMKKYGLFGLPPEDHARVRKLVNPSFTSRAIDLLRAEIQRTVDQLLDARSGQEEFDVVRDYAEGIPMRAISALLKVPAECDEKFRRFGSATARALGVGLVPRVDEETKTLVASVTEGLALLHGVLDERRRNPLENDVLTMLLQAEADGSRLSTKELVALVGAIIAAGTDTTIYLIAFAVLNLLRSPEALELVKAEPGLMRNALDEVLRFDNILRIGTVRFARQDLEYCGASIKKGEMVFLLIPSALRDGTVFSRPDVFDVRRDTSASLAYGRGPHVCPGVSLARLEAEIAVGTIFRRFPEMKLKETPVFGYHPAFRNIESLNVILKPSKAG

[7] = biological target: T6, Bovine adrenodoxin reductase (bovine) (UniProt P08165)
T6 sequence: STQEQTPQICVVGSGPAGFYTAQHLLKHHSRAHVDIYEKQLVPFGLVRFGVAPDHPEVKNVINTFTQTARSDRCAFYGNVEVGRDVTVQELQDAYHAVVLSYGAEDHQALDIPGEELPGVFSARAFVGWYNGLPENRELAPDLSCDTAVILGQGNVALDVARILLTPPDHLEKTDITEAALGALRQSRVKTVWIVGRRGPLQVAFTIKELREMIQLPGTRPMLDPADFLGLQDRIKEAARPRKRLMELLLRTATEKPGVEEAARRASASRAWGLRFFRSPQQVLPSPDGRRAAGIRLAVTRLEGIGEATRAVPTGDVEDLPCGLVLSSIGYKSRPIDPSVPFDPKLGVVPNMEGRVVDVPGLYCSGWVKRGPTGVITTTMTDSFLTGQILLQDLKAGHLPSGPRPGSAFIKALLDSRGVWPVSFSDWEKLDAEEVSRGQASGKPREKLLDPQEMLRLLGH

[8] = biological target: T7, putidaredoxin reductase from Pseudomonas putida (Pseudomonas putida) (UniProt P16640)
T7 sequence: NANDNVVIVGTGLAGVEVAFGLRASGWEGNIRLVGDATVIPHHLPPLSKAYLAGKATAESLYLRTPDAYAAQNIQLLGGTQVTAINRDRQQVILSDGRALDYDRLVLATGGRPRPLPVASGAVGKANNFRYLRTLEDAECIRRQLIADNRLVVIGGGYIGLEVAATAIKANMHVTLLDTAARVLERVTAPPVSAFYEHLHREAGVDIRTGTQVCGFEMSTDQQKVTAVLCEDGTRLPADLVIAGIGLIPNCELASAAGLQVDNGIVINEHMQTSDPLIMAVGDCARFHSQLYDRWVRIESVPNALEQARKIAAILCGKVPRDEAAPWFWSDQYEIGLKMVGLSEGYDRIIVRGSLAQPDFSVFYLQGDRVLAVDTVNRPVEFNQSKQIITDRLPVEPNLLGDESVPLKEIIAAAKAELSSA

[9] = biological target: T6, Bovine adrenodoxin reductase (bovine); remark: listed apart in the source
[10] = biological target: plastidic-type ferredoxin reductase SelFdR0978 from Synechococcus elongatus PCC 7942 (Synechococcus elongatus PCC 7942)
[11] = biological target: plastidic-type ferredoxin reductase SelFdR0978 from Synechococcus elongatus PCC 7942 (Synechococcus elongatus PCC 7942); remark: listed apart in the source
[12] = biological target: T7, putidaredoxin reductase from Pseudomonas putida (Pseudomonas putida); remark: listed apart in the source
[13] = electron acceptor, 1 mM NADPH or NADH
[14] = electron donor at 1 mM, DCIP as acceptor

Q: How did the “HPLC/HRMS of products, reconstituted system” value [1] turn out when CC[C@H](C)C(=O)O[C@H]1CCC=C2C=C[C@H](C)[C@H](CC[C@@H](O)C[C@@H](O)CC(=O)O)[C@H]21 was run?
A: The value was “P450sca-2 produced pravastatin as the main product in all positive reactions”.

Q: Which results are given for O=C1C(Cl)=CC(=Nc2ccc(O)cc2)C=C1Cl [DCIP]?
A: DCIP reduction, absorbance at 600 nm [2, 13]: SelFdR0978 was more efficient in DCIP reduction than both AdR and PdR; DCIP reduction, absorbance at 600 nm [3, 13]: SelFdR0978 was more efficient in DCIP reduction than both AdR and PdR; DCIP reduction, absorbance at 600 nm [4, 13]: SelFdR0978 was more efficient in DCIP reduction than both AdR and PdR

Q: Which “FAD released by guanidinium chloride, absorbance at 450 nm” value [5] does the source give for Cc1cc2nc3c(=O)[nH]c(=O)nc-3n(C[C@H](O)[C@H](O)[C@H](O)COP(=O)(O)OP(=O)(O)OC[C@H]3O[C@@H](n4cnc5c(N)ncnc54)[C@H](O)[C@@H]3O)c2cc1C [FAD] here?
A: Its value is “extinction coefficients of the flavin-bound SelFdR0978”.

Q: How did the “DCIP reduction, absorbance at 600 nm” value [2, 14] turn out when NC(=O)C1=CN([C@@H]2O[C@H](COP(=O)(O)OP(=O)(O)OC[C@H]3O[C@@H](n4cnc5c(N)ncnc54)[C@H](O)[C@@H]3O)[C@@H](O)[C@H]2O)C=CC1 [NADH] was run?
A: Its value is “PdR preferred NADH to NADPH”.

Q: With NC(=O)C1=CN([C@@H]2O[C@H](COP(=O)(O)OP(=O)(O)OC[C@H]3O[C@@H](n4cnc5c(N)ncnc54)[C@H](OP(=O)(O)O)[C@@H]3O)[C@@H](O)[C@H]2O)C=CC1 [NADPH] as the molecule, how does the “DCIP reduction, absorbance at 600 nm” value [3, 14] read?
A: Its value is “SelFdR0978 showed a strong preference for NADPH over NADH”.

Q: And the “DCIP reduction, absorbance at 600 nm” value [4, 14]?
A: The value was “AdR only exhibited a slightly increased activity with NADPH than with NADH”.

Q: Which “conversion assay, reconstituted system” value [6] does the source give for C/C1=C/C[C@@H](/C(C)=C/c2csc(C)n2)OC(=O)C[C@H](O)C(C)(C)C(=O)[C@H](C)[C@@H](O)[C@@H](C)CCC1 [epothilone D] here?
A: The value was “EpoK catalyzes the epoxidation of C12-C13 double bond in epothilone D to form epothilone B”.

Q: Which results are given for “Bovine adrenodoxin Adx(4-108) (domain or fragment)”?
A: Km for the redoxin in cyt c reduction (NAD(P)H, 1 nM FdR, 0-40 uM Fdx, 30 uM cyt c) [7]: 14.6 µM; conversion rate of YC-17 by PikC (1 uM P450, 10 uM Fdx, 5 uM FdR), wild-type reference [8]: 16.5%; conversion rate of YC-17 by PikC (1 uM P450, 10 uM Fdx, 5 uM FdR), wild-type reference [9]: 63.8%; conversion rate of YC-17 by PikC (1 uM P450, 10 uM Fdx, 5 uM FdR), wild-type reference [10]: 15.6%

Q: “Fe2S2 ferredoxin SelFdx1499 from Synechococcus elongatus PCC 7942 (natural protein)” was tested. Which Km for the redoxin in cyt c reduction (NAD(P)H, 1 nM FdR, 0-40 uM Fdx, 30 uM cyt c) [11] did it give?
A: Its Km for the redoxin in cyt c reduction (NAD(P)H, 1 nM FdR, 0-40 uM Fdx, 30 uM cyt c) is 14.2 µM.

Q: And the conversion rate of YC-17 by PikC (1 uM P450, 10 uM Fdx, 5 uM FdR), wild-type reference [8]?
A: The conversion rate of YC-17 by PikC (1 uM P450, 10 uM Fdx, 5 uM FdR), wild-type reference was 24.7%.

Q: What about the conversion rate of YC-17 by PikC (1 uM P450, 10 uM Fdx, 5 uM FdR), wild-type reference [9] of the same molecule?
A: Its conversion rate of YC-17 by PikC (1 uM P450, 10 uM Fdx, 5 uM FdR), wild-type reference is 30.1%.

Q: What about the conversion rate of YC-17 by PikC (1 uM P450, 10 uM Fdx, 5 uM FdR), wild-type reference [10] of the same molecule?
A: Its conversion rate of YC-17 by PikC (1 uM P450, 10 uM Fdx, 5 uM FdR), wild-type reference is 99.1%.

B1: Adx-M1 (domain or fragment)
chain: EDKITVHFINRDGETLTTKGKIGDALLDVVVQNNLDIDGFGACEGTLACSTCHLIFEQHIFEKLEAIADEEAAMLALAYGLTDRSRLGCQICLTKAMDNMTVRVP
Q: With B1 as the molecule, how does the conversion rate of YC-17 by PikC (1 uM P450, 10 uM Fdx, 5 uM FdR) [10] read?
A: Its conversion rate of YC-17 by PikC (1 uM P450, 10 uM Fdx, 5 uM FdR) is 9.2%.

B2: Adx-M2 (domain or fragment)
chain: EDKITVHFINRDGETLTTKGKIGDSLLDVVVQNNLDIAGFGACAGTAACSTCHLIFEQHIFEKLEAITDEENDMLALAYGLTDRSRLGCQICLTKAMDNMTVRVP
Q: For B2, which conversion rate of YC-17 by PikC (1 uM P450, 10 uM Fdx, 5 uM FdR) [9] is on record?
A: Its conversion rate of YC-17 by PikC (1 uM P450, 10 uM Fdx, 5 uM FdR) is 67.8%.

B3: Adx-M3 (domain or fragment)
chain: EDKITVHFINRDGETLTTKGKIGDSLLDVVVQNNLDIAAFGLCEGTLACSTCHLIFEQHIFEKLEAITDEENDMLDLAYGLTDRSRLGCQICLTKAMDNMTVRVP
Q: B3 was tested. Which conversion rate of YC-17 by PikC (1 uM P450, 10 uM Fdx, 5 uM FdR) [8] did it give?
A: The conversion rate of YC-17 by PikC (1 uM P450, 10 uM Fdx, 5 uM FdR) was 7.2%.

B4: putidaredoxin from Pseudomonas putida (natural protein)
chain: SKVVYVSHDGTRRELDVADGVSLMQAAVSNGIYDIVGDCGGSASCATCHVYVNEAFTDKVPAANEREIGMLECVTAELKPNSRLCCQIIMTPELDGIVVDVPDRQW
Q: What does the source list for B4?
A: Km for the redoxin in cyt c reduction (NAD(P)H, 1 nM FdR, 0-40 uM Fdx, 30 uM cyt c) [12]: 22.1 µM; conversion rate of YC-17 by PikC (1 uM P450, 10 uM Fdx, 5 uM FdR), wild-type reference [8]: 15.6%; conversion rate of YC-17 by PikC (1 uM P450, 10 uM Fdx, 5 uM FdR), wild-type reference [9]: 0%; conversion rate of YC-17 by PikC (1 uM P450, 10 uM Fdx, 5 uM FdR), wild-type reference [10]: 0%
